Results taken from the RNAGym collection of RNA variant scans (doi:10.1021/acssynbio.7b00057).

B1: Pistol ribozyme (parent)
chain: GGGUCGUUGUUCCAUAAUCGCGUGGAUAUGGCACGCAAGUUUCUACCGGGCACCGUAAAUGUCCGACUGGAGCCGUUCGGGCGGCUAUAAACAGACCUCAGGCCCGAAGCGUGGCGGCACCUGCCGCCGGUGGUAAAAAAGAUCGGAAGAGCACACGUCU

Variants of: B1
Experiment: aptazyme ON/OFF ratio, guanine; higher = stronger switching; co-transcriptional cleavage with and without guanine

First: GGGUCGCUAUACCAUAAUCGCGUGGAUAUGGCACGCAAGUUUCUACCGGGCACCGUAAAUGUCCGACUGGAGCCGUUCGGGCGGCUAUAAACAGACCUCAGGCCCGAAGCGUGGCGGCACCUGCCGCCGGUGGUAAAAAAGAUCGGAAGAGCACACGUCU [U7C G9A U11A]
Second: GGGUCGCUAUAGAAUAAUCGCGUGGAUAUGGCACGCAAGUUUCUACCGGGCACCGUAAAUGUCCGACUGGAGCCGUUCGGGCGGCUAUAAACAGACCUCAGGCCCGAAGCGUGGCGGCACCUGCCGCCGGUGGUAAAAAAGAUCGGAAGAGCACACGUCU [U7C G9A U11A C12G C13A]
The “aptazyme ON/OFF ratio” value of the first is higher: 1.33 for the first, 1.15 for the second.

First: GGGUCGCUAUAGUAUAAUCGCGUGGAUAUGGCACGCAAGUUUCUACCGGGCACCGUAAAUGUCCGACUGGAGCCGUUCGGGCGGCUAUAAACAGACCUCAGGCCCGAAGCGUGGCGGCACCUGCCGCCGGUGGUAAAAAAGAUCGGAAGAGCACACGUCU [U7C G9A U11A C12G C13U]
Second: GGGUCGCUAUAGGAUAAUCGCGUGGAUAUGGCACGCAAGUUUCUACCGGGCACCGUAAAUGUCCGACUGGAGCCGUUCGGGCGGCUAUAAACAGACCUCAGGCCCGAAGCGUGGCGGCACCUGCCGCCGGUGGUAAAAAAGAUCGGAAGAGCACACGUCU [U7C G9A U11A C12G C13G]
The “aptazyme ON/OFF ratio” value of the first is higher: 1.27 for the first, 1.19 for the second.

Compared with GGGUCGCUAGGUUAUAAUCGCGUGGAUAUGGCACGCAAGUUUCUACCGGGCACCGUAAAUGUCCGACUGGAGCCGUUCGGGCGGCUAUAAACAGACCUCAGGCCCGAAGCGUGGCGGCACCUGCCGCCGGUGGUAAAAAAGAUCGGAAGAGCACACGUCU [U7C G9A U10G U11G C12U C13U], GGGUCGCUAGGUAAUAAUCGCGUGGAUAUGGCACGCAAGUUUCUACCGGGCACCGUAAAUGUCCGACUGGAGCCGUUCGGGCGGCUAUAAACAGACCUCAGGCCCGAAGCGUGGCGGCACCUGCCGCCGGUGGUAAAAAAGAUCGGAAGAGCACACGUCU [U7C G9A U10G U11G C12U C13A] is lower in “aptazyme ON/OFF ratio” value: 1.21 for the first, 1.14 for the second.

GGGUCGCUAGGUGAUAAUCGCGUGGAUAUGGCACGCAAGUUUCUACCGGGCACCGUAAAUGUCCGACUGGAGCCGUUCGGGCGGCUAUAAACAGACCUCAGGCCCGAAGCGUGGCGGCACCUGCCGCCGGUGGUAAAAAAGAUCGGAAGAGCACACGUCU [U7C G9A U10G U11G C12U C13G] and GGGUCGCUAGGCGAUAAUCGCGUGGAUAUGGCACGCAAGUUUCUACCGGGCACCGUAAAUGUCCGACUGGAGCCGUUCGGGCGGCUAUAAACAGACCUCAGGCCCGAAGCGUGGCGGCACCUGCCGCCGGUGGUAAAAAAGAUCGGAAGAGCACACGUCU [U7C G9A U10G U11G C13G] are the same in “aptazyme ON/OFF ratio” value: 1.05 for the first, 1.05 for the second.

Going from GGGUCGCUAGGCUAUAAUCGCGUGGAUAUGGCACGCAAGUUUCUACCGGGCACCGUAAAUGUCCGACUGGAGCCGUUCGGGCGGCUAUAAACAGACCUCAGGCCCGAAGCGUGGCGGCACCUGCCGCCGGUGGUAAAAAAGAUCGGAAGAGCACACGUCU [U7C G9A U10G U11G C13U] to GGGUCGCUAGGCAAUAAUCGCGUGGAUAUGGCACGCAAGUUUCUACCGGGCACCGUAAAUGUCCGACUGGAGCCGUUCGGGCGGCUAUAAACAGACCUCAGGCCCGAAGCGUGGCGGCACCUGCCGCCGGUGGUAAAAAAGAUCGGAAGAGCACACGUCU [U7C G9A U10G U11G C13A], the “aptazyme ON/OFF ratio” value rises from 1.17 to 1.24.

Compared with GGGUCGCUAUAUAAUAAUCGCGUGGAUAUGGCACGCAAGUUUCUACCGGGCACCGUAAAUGUCCGACUGGAGCCGUUCGGGCGGCUAUAAACAGACCUCAGGCCCGAAGCGUGGCGGCACCUGCCGCCGGUGGUAAAAAAGAUCGGAAGAGCACACGUCU [U7C G9A U11A C12U C13A], GGGUCGCUAUAUGAUAAUCGCGUGGAUAUGGCACGCAAGUUUCUACCGGGCACCGUAAAUGUCCGACUGGAGCCGUUCGGGCGGCUAUAAACAGACCUCAGGCCCGAAGCGUGGCGGCACCUGCCGCCGGUGGUAAAAAAGAUCGGAAGAGCACACGUCU [U7C G9A U11A C12U C13G] is higher in “aptazyme ON/OFF ratio” value: 1.07 for the first, 1.09 for the second.

Going from GGGUCGCUAUAUCAUAAUCGCGUGGAUAUGGCACGCAAGUUUCUACCGGGCACCGUAAAUGUCCGACUGGAGCCGUUCGGGCGGCUAUAAACAGACCUCAGGCCCGAAGCGUGGCGGCACCUGCCGCCGGUGGUAAAAAAGAUCGGAAGAGCACACGUCU [U7C G9A U11A C12U] to GGGUCGCUAUAACAUAAUCGCGUGGAUAUGGCACGCAAGUUUCUACCGGGCACCGUAAAUGUCCGACUGGAGCCGUUCGGGCGGCUAUAAACAGACCUCAGGCCCGAAGCGUGGCGGCACCUGCCGCCGGUGGUAAAAAAGAUCGGAAGAGCACACGUCU [U7C G9A U11A C12A], the “aptazyme ON/OFF ratio” value rises from 1.19 to 1.38.

First: GGGUCGCUAUAGCAUAAUCGCGUGGAUAUGGCACGCAAGUUUCUACCGGGCACCGUAAAUGUCCGACUGGAGCCGUUCGGGCGGCUAUAAACAGACCUCAGGCCCGAAGCGUGGCGGCACCUGCCGCCGGUGGUAAAAAAGAUCGGAAGAGCACACGUCU [U7C G9A U11A C12G]
Second: GGGUCGCUAUAAGAUAAUCGCGUGGAUAUGGCACGCAAGUUUCUACCGGGCACCGUAAAUGUCCGACUGGAGCCGUUCGGGCGGCUAUAAACAGACCUCAGGCCCGAAGCGUGGCGGCACCUGCCGCCGGUGGUAAAAAAGAUCGGAAGAGCACACGUCU [U7C G9A U11A C12A C13G]
The “aptazyme ON/OFF ratio” value of the first is higher: 1.28 for the first, 1.12 for the second.

First: GGGUCGCUAUAAAAUAAUCGCGUGGAUAUGGCACGCAAGUUUCUACCGGGCACCGUAAAUGUCCGACUGGAGCCGUUCGGGCGGCUAUAAACAGACCUCAGGCCCGAAGCGUGGCGGCACCUGCCGCCGGUGGUAAAAAAGAUCGGAAGAGCACACGUCU [U7C G9A U11A C12A C13A]
Second: GGGUCGCUAUAAUAUAAUCGCGUGGAUAUGGCACGCAAGUUUCUACCGGGCACCGUAAAUGUCCGACUGGAGCCGUUCGGGCGGCUAUAAACAGACCUCAGGCCCGAAGCGUGGCGGCACCUGCCGCCGGUGGUAAAAAAGAUCGGAAGAGCACACGUCU [U7C G9A U11A C12A C13U]
The “aptazyme ON/OFF ratio” value of the first is higher: 1.24 for the first, 1.21 for the second.
